Results: US20230363418A1, “COMPOSITION FOR PREVENTING OR TREATING NEUROPSYCHOLOGIC DISEASE, COMPRISING MANF” (CEFO CO., LTD., priority 2020, published 2023)

Tests used:
[1] = test system: primary cultured neural progenitor cells; test: Immunofluorescence staining of Ki67, Nestin, TuJ1 and NeuN in primary cultured neural progenitor cells; format: cell-based, rat; conditions: MANF 30 ng/ml, compared to the control group
Experimental: To investigate whether or not MANF promotes proliferation of neural progenitor cells, the primary cultured neural progenitor cells are treated with MANF, and then proliferating cells were fluorescently stained with Ki67 antibody, neural progenitor cells with Nestin antibody, immature nerve cells with TuJ1, and mature neural cells with NeuN antibody.
Specifically, the neural progenitor cells were cultured in the same manner as in Example 1, and after removing all the mediums, they were washed once with PBS. After being fixed for 15 minutes with 4% PFA (paraformaldehyde) in PBS, they were washed twice with PBS again. After washing the cover slip to which the cells were attached with PBST, 0.5% Triton X-100-PBST was added thereto and reacted for 10 minutes. Again, blocking was performed with 2% BSA in PBST or 5% normal serum (Normal donkey serum: Jackson lab, 017-000-121, Normal horse serum: Sigma, H0146); and as primary antibodies, rb-Ki67(Abcam, AB15580, 1:500), mo-NeuN(Millipore, MAB377B, 1:500), mo-Tuj1(Sigma, T8660, 1:3000), mo-Flag(Sigma, F1804, 1:500), and mo-Nestin(Millipore, MAB353, 1:200) were added to 2% BSA in PBS and reacted overnight at 4° C. The next day, they were washed with PBST, and then, as secondary antibodies, mo-Alexa 488(Invitrogen, A21202, 1:700), mo-Cy3(Jackson lab, 715-165-151, 1:500), and rb-Alexa 488(Jackson lab, 711-546-152, 1:700) were added to PBST and reacted at room temperature for 1 hour. Cell nuclei were stained with DAPI (1 µg/mL, Sigma), mounted on slides, scanned with a confocal laser microscope, and photographed. Heo SR et al.(2009) and Han AM t al.(2012) were referred to in the above method.
In the case of cell count confirmation and data analysis, the number of cell nuclei labeled with DAPI and the number of cells stained with each differentiation marker were counted, respectively, and the number of each differentiation marker was expressed as a percentage of the number of cell nuclei. In this case, the number of cells that matched exactly in shape and location and had the shape of a nerve cell was counted. For example, in NeuN cell count measurement, the number of cells with a round shape in a nucleus and overlapping staining with DAPI was counted, and nonspecific signals appearing at the edge of the slide were not included. In data analysis, the control group and the experimental group were compared through one-way analysis of variance (ANOVA). The statistical significance of the data was set as p<0.05.

[2] = test system: IBO-administered memory impairment and autism model; test: Passive avoidance test; format: in vivo, rat; conditions: MANF-AAV-hMSC transplanted into the hippocampus of IBO rats
Experimental: (§1) Memory impairment and autism models were prepared by administering IBO to the entorhinal cortex of the rats, wherein the IBO destroys granule cells of the dentate gyrus (DG) and pyramidal cells of the hippocampus, which receive nerve signals input from the entorhinal cortex. Specifically, the rats were anesthetized with equitensin (10% ethanol containing 350 mM pentobarbital sodium, 250 mM chloral hydrate, 85 mM MgSO and 40% propylene glycol). The incisor bar of a stereotaxic device (Stoelting Co., U.S.A.) was placed 3.4 mm below the interaural line, and the injection needle angle was fixed at […] right from the center of the sagittal plane. 1.5 ul of IBO (1 mg/ml) was injected into the entorhinal cortex of the rat using the stereotaxic device. The IBO was injected into three locations of first, AP: -8.4, ML: -4.8, DV: -4.6; Second, AP; -8.4, ML: -4.8, DV: 2.3; Third, AP: -8.8, ML: - 3.65, DV: -3.4 (FIG. 7). […]
It was performed according to the method described in Heo Het al. (2009) for the same number of rats as in each group of Example 6-1. […] Exactly 24 hours after the adaptation training, the rats were placed in the bright room again, and the latency time to enter the dark room was measured for 720 seconds (confinement experiment).

[3] = test system: IBO-administered memory impairment and autism model; test: Morris water maze experiment; format: in vivo, rat; conditions: MANF-AAV-hMSC transplanted into the hippocampus of IBO rats
Experimental: as §1, with “plane.” for “plane. 1.5 ul of IBO (1 mg/ml) was injected into the entorhinal cortex of the rat using the stereotaxic device. The IBO was injected into three locations of first, AP: -8.4, ML: -4.8, DV: -4.6; Second, AP; -8.4, ML: -4.8, DV: 2.3; Third, AP: -8.8, ML: - 3.65, DV: -3.4 (FIG. 7).”
The same number of rats as in each group of Example 6-1 was subjected to the Morris water maze experiment in a round, rust-free and inner surface-white swimming pool (diameter 160 cm; height 60 cm). […] The final experiment measured the time the rat stayed where the platform was for 60 seconds after removing the platform (probe trial). Swimming time and training length were tracked and recorded using a video camera. […] The captured video pictures were analyzed with a video tracking system (Ethovision water maze program, Noldus Information Technology, Wogeningen, The Netherlands). The analyzed information included the time of swimming in the target quadrant, and the number of crossings the imaginary platform to find the removed platform.

B1: MANF: one of 16 or more growth factors secreted into nerve stem cells by cerebrovascular cells; amino acid sequence of SEQ ID NO: 1 (protein)
chain: MRRMWATQGLAVALALSVLPGSRALRPGDCEVCISYLGRFYQDLKDRDVTFSPATIENELIKFCREARGKENRLCYYIGATDDAATKIINEVSKPLAHHIPVEKICEKLKKKDSQICELKYDKQIDLSTVDLKKLRVKELKKILDDWGETCKGCAEKSDYIRKINELMPKYAPKAASARTDL
modifications: MANF
Ki67-stained proliferating cells [1]: significantly increased
immature neural cells (TuJ1) [1]: also increased, but there was no statistical significance
mature neural cells (NeuN) [1]: also increased, but there was no statistical significance
nestin-stained neural progenitor cells [1]: significantly increased
memory ability in passive avoidance test [2]: memory improvement
memory ability in Morris water maze test [3]: memory improvement
